“And” between values parts separate entries of the source, which are not always exact repeats. Identical values can stand only once.
Legend:
[1] = molecular target: His6-tagged BAKΔTM (BAK lacking its transmembrane domain, residues 1–186) (human) (UniProt Q16611); test: cross-linking
[2] = molecular target: MCL1ΔTM (cleaved by thrombin from GST-MCL1ΔTM); test: SPR
[3] = molecular target: BCLXLΔTM (cleaved by thrombin from GST-BCLXLΔTM); test: SPR

| Molecule | stoichiometry N [1] | fold less tight binding than BAK BH3 peptide [2] [fold] | fold less tight binding than BAK BH3 peptide [3] [fold] |
| --- | --- | --- | --- |
| His6-tagged BAKΔTM (BAK lacking its transmembrane domain, residues 1–186) (from UniProt Q16611 1-186) (domain or fragment) | 2 and 3 | – | – |
| His6-tagged BAKΔTM (BAK lacking its transmembrane domain, residues 1–186) (domain or fragment) MASGQGPGPPRQECGEPALPSASEEQVAQDTEEVFRSYVFYRHQQEQEAEGVAAPADPEMVTLPLQPSSTMGQVGRQLAIIGDDINRRYDSEFQTMLQHLQPTAENAYEYFTKIATSLFESGINWGRVVALLGFGYRLALHVYQHGLTGFLGQVTRFVVDFMLHHCIARWIAQRGGWVAALNLGNG | – | 100 | 100 |
